The record followed here is patent US20060257938A1, “Method of screening for drugs that block ligand binding to a lipid binding protein” (priority 2005, published 2006).

To fix the notation:
B1: 73Q, 72A (protein, listed as Rattus norvegicus)
chain: AFDGTWKVDRNENYEKFMEKMGINVVKRKLGAHDNLKLTITQEGNKFTVKESSNFRNIDVVFELGVDFAYSAQDGTELTGTWTMEGNKLVGKFKRVDNGKELIAVREISGNELIQTYTYEGVEAKRIFKKE
modifications: PEPTIDE (1)...(131) wild-type rat intestinal fatty acid binding protein
B2: 74T, 72A (protein, listed as Rattus norvegicus)
chain: B1 chain with Q73A, D74T
modifications: PEPTIDE (1)...(131) wild-type rat intestinal fatty acid binding protein
B3: 74Q, 72A (protein, listed as Rattus norvegicus)
chain: B1 chain with Q73A, D74Q
modifications: PEPTIDE (1)...(131) wild-type rat intestinal fatty acid binding protein
B4: 73W, 72A (protein, listed as Rattus norvegicus)
chain: B1 chain with Q73W
modifications: PEPTIDE (1)...(131) wild-type rat intestinal fatty acid binding protein
B5: 74A, 72A (protein, listed as Rattus norvegicus)
chain: B1 chain with Q73A, D74A
modifications: PEPTIDE (1)...(131) wild-type rat intestinal fatty acid binding protein
B6: 78A3, 72A (protein, listed as Rattus norvegicus)
chain: B1 chain with Q73A, L78A
modifications: PEPTIDE (1)...(131) wild-type rat intestinal fatty acid binding protein
B7: 78I1, 72A (protein, listed as Rattus norvegicus)
chain: B1 chain with Q73A, L78I
modifications: PEPTIDE (1)...(131) wild-type rat intestinal fatty acid binding protein
B8: 78H1, 72A (protein, listed as Rattus norvegicus)
chain: B1 chain with Q73A, L78H
modifications: PEPTIDE (1)...(131) wild-type rat intestinal fatty acid binding protein
B9: 78F1, 72A (protein, listed as Rattus norvegicus)
chain: B1 chain with Q73A, L78F
modifications: PEPTIDE (1)...(131) wild-type rat intestinal fatty acid binding protein
B10: 74L, 72A (protein, listed as Rattus norvegicus)
chain: B1 chain with Q73A, D74L
modifications: PEPTIDE (1)...(131) wild-type rat intestinal fatty acid binding protein
B11: 73S, 72A (protein, listed as Rattus norvegicus)
chain: B1 chain with Q73S
modifications: PEPTIDE (1)...(131) wild-type rat intestinal fatty acid binding protein
B12: 73V, 72A (protein, listed as Rattus norvegicus)
chain: B1 chain with Q73V
modifications: PEPTIDE (1)...(131) wild-type rat intestinal fatty acid binding protein
B13: 74C, 72A (protein, listed as Rattus norvegicus)
chain: B1 chain with Q73A, D74C
modifications: PEPTIDE (1)...(131) wild-type rat intestinal fatty acid binding protein
B14: 73T, 72A (protein, listed as Rattus norvegicus)
chain: B1 chain with Q73T
modifications: PEPTIDE (1)...(131) wild-type rat intestinal fatty acid binding protein
B15: 78C2, 72A (protein, listed as Rattus norvegicus)
chain: B1 chain with Q73A, L78C
modifications: PEPTIDE (1)...(131) wild-type rat intestinal fatty acid binding protein
B16: 78M1, 72A (protein, listed as Rattus norvegicus)
chain: B1 chain with Q73A, L78M
modifications: PEPTIDE (1)...(131) wild-type rat intestinal fatty acid binding protein
B17: 73R, 72A (protein, listed as Rattus norvegicus)
chain: B1 chain with Q73R
modifications: PEPTIDE (1)...(131) wild-type rat intestinal fatty acid binding protein
B18: 78W1, 72A (protein, listed as Rattus norvegicus)
chain: B1 chain with Q73A, L78W
modifications: PEPTIDE (1)...(131) wild-type rat intestinal fatty acid binding protein
B19: 74N, 72A (protein, listed as Rattus norvegicus)
chain: B1 chain with Q73A, D74N
modifications: PEPTIDE (1)...(131) wild-type rat intestinal fatty acid binding protein
B20: 78T1, 72A (protein, listed as Rattus norvegicus)
chain: B1 chain with Q73A, L78T
modifications: PEPTIDE (1)...(131) wild-type rat intestinal fatty acid binding protein

Where a chain is given by its changes, count along the chain named. Where “and” joins values, the source holds several entries; their conditions need not be identical. Equal entries are not always repeated.

The first assay in a line: Probe fluorescence ratio response to arachidonic acid relative to ADIFAB2. As to conditions: Arachidonic acid; response relative to ADIFAB2. In kind it is binding. In short, it runs like this:
(§1)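 Each fatty acid's response was expressed relative to ADIFAB2, the rI-FABP-L72A probe, as ΔR/ΔRreference. ΔR is the change in the background-corrected two-wavelength intensity ratio R=Fλ1/Fλ2 from its analyte-free baseline R0. Emission was read near about 420-480 nm for unbound and about 495-580 nm for FFA-bound probe.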
With B1, the “DR/DR AA” value is reported as 1.36.

With B2, the “DR/DR AA” value came to 0.76.

For B3, the “DR/DR AA” value is 0.81.

As to B4, the “DR/DR AA” value was 1.77.

On to B5, for which the “DR/DR AA” value worked out at 1.42.

For B6, the “DR/DR AA” value was determined as 0.48.

As for B7, the “DR/DR AA” value is 1.27.

As to B8, the “DR/DR AA” value is 1.23.

B9: the “DR/DR AA” value is listed as 2.04.

For the molecule B10, the “DR/DR AA” value is recorded as 0.22.

Consider B11, for which the “DR/DR AA” value amounted to 1.01.

Turning to B12, the “DR/DR AA” value worked out at 0.98.

Turning to B13, the “DR/DR AA” value is reported as 0.83.

As to B14, the “DR/DR AA” value came out at 0.87.

On to B15, for which the “DR/DR AA” value worked out at 0.15.

Take B16: the “DR/DR AA” value came to 1.39.

For the molecule B17, the “DR/DR AA” value is recorded as 0.40.

Consider B18, for which the “DR/DR AA” value is listed as 0.49.

On to B19, for which the “DR/DR AA” value turned out to be 1.62.

Turning to B20, the “DR/DR AA” value was determined as 1.07.

The assay is the same for the next values; noted with them: arachidonic acid; response relative to ADIFAB2.
As to B10, the “DR/DR AA” value is 0.222.

In the case of B12, the “DR/DR AA” value is 0.976.

On to B14, for which the “DR/DR AA” value came to 0.872.

A further assay in a line: Probe fluorescence ratio response to linolenic acid relative to ADIFAB2. The class given is binding. Particulars: response relative to ADIFAB2. The gist of the method:
as §1
Consider B1, for which the “DR/DR LNA” value turned out to be 1.31.

As to B2, the “DR/DR LNA” value amounted to 0.78.

With B3, the “DR/DR LNA” value stood at 0.86.

In the case of B4, the “DR/DR LNA” value came to 1.93.

As to B5, the “DR/DR LNA” value was found to be 1.42.

Turning to B6, the “DR/DR LNA” value was 0.50.

On to B7, for which the “DR/DR LNA” value was found to be 1.66.

Take B8: the “DR/DR LNA” value came to 1.26.

As for B9, the “DR/DR LNA” value was 2.05.

For B10, the “DR/DR LNA” value is 0.40 and 0.404.

Regarding B11, the “DR/DR LNA” value was determined as 1.08.

For B12, the “DR/DR LNA” value is 0.50 and 0.496.

For the molecule B13, the “DR/DR LNA” value was determined as 0.74.

As for B14, the “DR/DR LNA” value is 0.77 and 0.765.

In the case of B15, the “DR/DR LNA” value is recorded as 0.20.

Turning to B16, the “DR/DR LNA” value is 1.50.

Consider B17, for which the “DR/DR LNA” value was found to be 0.33.

With B18, the “DR/DR LNA” value is recorded as 0.53.

Take B19: the “DR/DR LNA” value was 1.57.

As for B20, the “DR/DR LNA” value was 1.20.

A short description of a further assay: Probe fluorescence ratio response to linoleic acid relative to ADIFAB2. The class given is binding. As to conditions: response relative to ADIFAB2. In short, it runs like this:
as §1
Turning to B1, the “DR/DR LA” value stood at 1.39.

Turning to B2, the “DR/DR LA” value is reported as 0.82.

On to B3, for which the “DR/DR LA” value is on record as 0.87.

Consider B4, for which the “DR/DR LA” value came out at 1.89.

With B5, the “DR/DR LA” value is on record as 1.34.

Regarding B6, the “DR/DR LA” value was 0.44.

As to B7, the “DR/DR LA” value is 1.11.

For the molecule B8, the “DR/DR LA” value amounted to 1.28.

For B9, the “DR/DR LA” value is 2.00.

Take B10: the “DR/DR LA” value is 0.30 and 0.305.

Regarding B11, the “DR/DR LA” value was 1.05.

Turning to B12, the “DR/DR LA” value is 0.40 and 0.396.

In the case of B13, the “DR/DR LA” value turned out to be 0.71.

Turning to B14, the “DR/DR LA” value was 0.77 and 0.768.

For the molecule B15, the “DR/DR LA” value amounted to 0.20.

For B16, the “DR/DR LA” value stood at 1.44.

B17: the “DR/DR LA” value worked out at 0.36.

B18: the “DR/DR LA” value is recorded as 0.57.

For B19, the “DR/DR LA” value stood at 1.44.

B20: the “DR/DR LA” value worked out at 1.25.

The next assay is described as follows: Probe fluorescence ratio response to oleic acid relative to ADIFAB2. The class given is binding. Particulars: response relative to ADIFAB2. The gist of the method:
as §1
With B1, the “DR/DR OA” value was 1.28.

For the molecule B2, the “DR/DR OA” value is 0.70.

In the case of B3, the “DR/DR OA” value amounted to 0.74.

Turning to B4, the “DR/DR OA” value amounted to 1.66.

For the molecule B5, the “DR/DR OA” value is on record as 1.34.

Turning to B6, the “DR/DR OA” value was found to be 0.41.

As for B7, the “DR/DR OA” value amounted to 0.93.

With B8, the “DR/DR OA” value came to 1.13.

With B9, the “DR/DR OA” value is 1.83.

Regarding B10, the “DR/DR OA” value was 0.19 and 0.188.

In the case of B11, the “DR/DR OA” value was 0.96.

Consider B12, for which the “DR/DR OA” value is 0.60 and 0.603.

Take B13: the “DR/DR OA” value is reported as 0.56.

In the case of B14, the “DR/DR OA” value is 0.78 and 0.778.

Consider B15, for which the “DR/DR OA” value is recorded as 0.19.

With B16, the “DR/DR OA” value amounted to 1.44.

As to B17, the “DR/DR OA” value is reported as 0.27.

Turning to B18, the “DR/DR OA” value amounted to 0.53.

For B19, the “DR/DR OA” value is recorded as 1.52.

As to B20, the “DR/DR OA” value stood at 1.08.

The next assay can be described thus: Probe fluorescence ratio response to palmitic acid relative to ADIFAB2. In kind it is binding. Particulars: response relative to ADIFAB2. In short, it runs like this: as §1
For B1, the “DR/DR PA” value was found to be 1.19.

Take B2: the “DR/DR PA” value amounted to 0.37.

Consider B3, for which the “DR/DR PA” value came out at 0.43.

Turning to B4, the “DR/DR PA” value came to 1.05.

On to B5, for which the “DR/DR PA” value came out at 1.27.

Consider B6, for which the “DR/DR PA” value stood at 0.25.

B7: the “DR/DR PA” value is reported as 0.52.

For the molecule B8, the “DR/DR PA” value is given as 0.57.

In the case of B9, the “DR/DR PA” value came to 0.91.

In the case of B10, the “DR/DR PA” value was 0.36 and 0.361.

Take B11: the “DR/DR PA” value is 0.99.

Turning to B12, the “DR/DR PA” value was 0.48 and 0.475.

For the molecule B13, the “DR/DR PA” value is listed as 0.29.

As for B14, the “DR/DR PA” value was 0.62 and 0.621.

As for B15, the “DR/DR PA” value worked out at 0.09.

On to B16, for which the “DR/DR PA” value is 0.92.

With B17, the “DR/DR PA” value is 0.20.

As to B18, the “DR/DR PA” value is on record as 0.29.

Take B19: the “DR/DR PA” value was 1.38.

For the molecule B20, the “DR/DR PA” value was 0.54.
